Laboratory results: US20260008815A1, “CYCLIC PEPTIDE OR SALT THEREOF, AND USES THEREOF” (FUJIFILM Corporation, priority 2023, published 2026)
Numbered stars: 1 amine (or outer) side, 2 acyl side, 3 side chain; on linkers, the order of the positions; unused ones are H or OH. Bridge positions count the residues as written; N and C are the ends. Square brackets hold non-standard residues; d marks the D form. Primed or numbered codes have the meaning given here. Ends that are not written are not given here. acetyl″ = bridging -C(=O)-CH2- from a haloacetyl (chloroacetyl) group on the side-chain amine of K/Orn/Dab/Dap, the thiol sulfur replaces the halogen on its CH2 (X(acetyl) notation); acetyl = acetyl (haloacetyl before ring closure) on the side-chain amine, O=C(C[*:1])[*:2]; COCH2 = acetyl group that carries the bridge; hCys = N[C@@H](CCS)C(=O)O

Columns and labels:
[1] = target: T1, Recombinant Human FGFR2 alpha (IIIc) Fc Chimera Protein (Homo sapiens, UniProt P21802); experiment: SPR binding affinity of chemically synthesized cyclic peptide to immobilized FGFR; conditions: SPR binding amount at 10 nmol/L cyclic peptide, 25° C., per one molecule of FGFR; chemically synthesized product
T1 construct: Fc (chimera); purchased R&D systems 712-FR-050
Protocol: The binding affinity of the cyclic peptide to FGFR was evaluated using a surface plasmon resonance (SPR) method.
(§1) A CM5 sensor chip (Cytiva, 29149603) was set in Biacore-T200 (manufactured by Cytiva) which is a surface plasmon resonance device, and an HBS-EP buffer (Cytiva, BR100826) was added as a running buffer at a flow rate of 10 μL/min to equilibrate the flow channel. Next, 70 μL of a mixed aqueous solution of 0.2 mol/L 1-(3-dimethylaminopropyl)-3-ethylcarbodiimide (EDC) and 0.05 mol/L N-hydroxysuccinimide (NHS) was added to activate the sensor chip. Then, Recombinant Human FGFR2 alpha (IIIc) Fc Chimera Protein CF (R&D systems, 712-FR-050) prepared at 50 nmol/L in an Acetate 4.5 buffer (Cytiva, BR100350) was added thereto to perform immobilization at about 5000 RU. Thereafter, the blocking treatment was performed with an ethanolamine solution. In addition, in another flow channel of the same sensor chip, blocking treatment was performed immediately after activation without immobilizing FGFR.
(§2) A cyclic peptide diluted to 10 nmol/L using HBS-EP was added to each flow channel of the FGFR-immobilized sensor chip produced above at 25° C. for 10 minutes, then HBS-EP was allowed to flow as a running buffer for 30 minutes, and the binding of the cyclic peptide to FGFR was measured. Thereafter, a regeneration treatment of removing the bound cyclic peptide was performed by repeating the flow of a regeneration liquid in which sodium chloride powder was dissolved in Glysine 1.5 (Cytiva, BR100354) to a final concentration of 0.15 mol/L for 1 minute in each flow channel twice. The binding amount of the cyclic peptide was evaluated from the difference between the measured value of Biacore-T200 in the flow channel in which FGFR was immobilized and the measured value of Biacore-T200 in the flow channel in which FGFR was not immobilated, in a case where a 10 nmol/L cyclic peptide was allowed to flow.
The binding amount of the cyclic peptide evaluated above was normalized to the binding amount of the cyclic peptide molecules per one molecule of FGFR using the molecular weights of the cyclic peptide and FGFR, and the binding affinity to FGFR was evaluated according to the following evaluation criteria. The evaluation result preferably satisfies the evaluation criteria A, B, or C.

[2] = Molecular stability after reducing agent (DTT) treatment, LC; assay type: physicochemical; conditions: residual rate after DTT aqueous solution, room temperature, 1 hour
Protocol: The molecular stability of the cyclic peptide was evaluated by analyzing an aqueous solution of the cyclic peptide treated with a reducing agent by liquid chromatography (LC).
The reducing agent treatment was performed under the following conditions based on the concentration of glutathione contained in the cells. 25 μL of a 0.2 mg/mL cyclic peptide aqueous solution was prepared, 58.8 μL of a 12.6 mmol/L DTT aqueous solution was added to the aqueous solution, and the mixture was incubated at room temperature for 1 hour to obtain an aqueous solution of the cyclic peptide treated with a reducing agent. The DTT aqueous solution was used by diluting a 1 mol/L (+−)-dithiothreitol (DTT) solution (FUJIFILM Wako Pure Chemical Corporation, 044-33871) with water. The total area of all the peaks in LC/MS of the cyclic peptide before the reducing agent treatment was set to 100%, and the proportion of the total area of all the peaks in LC/MS of the aqueous solution of the cyclic peptide treated with the reducing agent was determined to calculate the residual rate of the cyclic peptide, and the molecular stability was evaluated according to the following evaluation criteria. The evaluation result preferably satisfies the evaluation criteria A, B, or C.
The LC used for the evaluation of molecular stability was set to the following conditions. • LC device: Prominence series (pump, column oven, autosampler, detector) (manufactured by Shimadzu Corporation) • Detector: photodiode array detector (SPD-M20A), measurement wavelength of 280 nm • Column: TSKgel ODS-100V, inner diameter of 4.6 mm×length of 150 mm, particle diameter of 5 μm (manufactured by Tosoh Corporation) • Eluent A: solution containing 0.1% trifluoroacetic acid as solute, and solvent is 100% water • Eluent B: solution containing 0.1% trifluoroacetic acid as solute, and solvent is 100% acetonitrile • Flow rate: 1.0 mL/min • Injection amount: 25 μL • Gradient: 20% to 50%: Eluent B (0 to 15 minutes), 100%: Eluent B (15 minutes) • Column temperature: 40° C.

[3] = target: T2, Recombinant Human FGFR2 alpha (IIIc) Fc Chimera Protein, CF (R&D systems, 712-FR-050) (human, UniProt P21802 22-377); experiment: SPR, 10 nmol/L peptide over immobilized FGFR2-Fc
T2 construct: bought; not shown: Fc part of the chimera
Protocol: as §1, §2

T1 sequence (P21802 with tags, fused parts or gaps limits assumed): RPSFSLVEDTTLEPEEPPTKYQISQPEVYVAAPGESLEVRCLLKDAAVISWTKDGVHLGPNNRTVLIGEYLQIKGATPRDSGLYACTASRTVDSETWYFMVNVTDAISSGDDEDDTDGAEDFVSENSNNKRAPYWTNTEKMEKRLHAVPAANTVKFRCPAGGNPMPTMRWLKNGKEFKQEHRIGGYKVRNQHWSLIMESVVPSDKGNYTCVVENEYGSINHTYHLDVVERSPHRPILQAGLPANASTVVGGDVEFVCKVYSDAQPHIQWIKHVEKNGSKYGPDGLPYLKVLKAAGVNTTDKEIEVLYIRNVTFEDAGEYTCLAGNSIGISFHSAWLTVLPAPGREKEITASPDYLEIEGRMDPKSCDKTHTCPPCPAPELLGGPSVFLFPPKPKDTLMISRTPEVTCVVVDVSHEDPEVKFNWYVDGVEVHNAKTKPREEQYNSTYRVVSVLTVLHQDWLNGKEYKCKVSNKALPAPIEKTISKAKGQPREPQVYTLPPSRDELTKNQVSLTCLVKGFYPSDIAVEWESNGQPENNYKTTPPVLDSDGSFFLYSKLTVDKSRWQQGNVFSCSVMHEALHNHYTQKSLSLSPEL
T2 sequence (P21802 22-377, change not shown): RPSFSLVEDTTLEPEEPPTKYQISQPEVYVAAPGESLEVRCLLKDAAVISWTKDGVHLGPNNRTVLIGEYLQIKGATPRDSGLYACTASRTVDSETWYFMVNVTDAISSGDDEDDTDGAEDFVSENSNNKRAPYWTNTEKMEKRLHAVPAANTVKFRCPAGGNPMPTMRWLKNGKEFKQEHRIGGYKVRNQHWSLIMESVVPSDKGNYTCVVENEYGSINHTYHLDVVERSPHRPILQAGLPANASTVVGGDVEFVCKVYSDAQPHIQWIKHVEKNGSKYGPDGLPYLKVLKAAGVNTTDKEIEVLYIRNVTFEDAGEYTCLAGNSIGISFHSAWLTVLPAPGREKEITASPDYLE

| binding amount (SPR, cyclic peptide molecules bound per FGFR molecule at 10 nmol/L peptide) [3] | Molecule | Evaluation result of binding affinity to FGFR [1] | Evaluation result of reductive stability [2] |
| --- | --- | --- | --- |
|  | 433 (Q[hCys]PQNFINPVQWRYFQHYK(COCH2)NKKK; thioether 2-19 via acetyl) [compound 433] | A (The binding amount is 0.7 molecules of the cyclic peptide/one molecule of FGFR or more.) | A (The residual rate of cyclic peptide is 90% or more.) |
|  | 434 (QXPQNFINPVQWRYFQHYXNKKK; not fully specified; Description of Artificial Sequence: Cyclic peptide) [compound 434] | A (The binding amount is 0.7 molecules of the cyclic peptide/one molecule of FGFR or more.) | A (The residual rate of cyclic peptide is 90% or more.) |
|  | 435 (QXPQNFINPVQWRYFQHYXNKKK; not fully specified; Description of Artificial Sequence: Cyclic peptide) [compound 435] | A (The binding amount is 0.7 molecules of the cyclic peptide/one molecule of FGFR or more.) | A (The residual rate of cyclic peptide is 90% or more.) |
|  | 437 (QK(COCH2)PQNFINPVQWRYFQHY[hCys]NKKK; thioether 2-19 via acetyl) [compound 437] | A (The binding amount is 0.7 molecules of the cyclic peptide/one molecule of FGFR or more.) | A (The residual rate of cyclic peptide is 90% or more.) |
|  | 438 (QK(COCH2)PQNFINPVQWRYFQHY[hCys]NKKK; thioether 2-19 via acetyl) [compound 438] | A (The binding amount is 0.7 molecules of the cyclic peptide/one molecule of FGFR or more.) | A (The residual rate of cyclic peptide is 90% or more.) |
|  | 439 (QXPQNFINPVQWRYFQHYXNKKK; not fully specified; Description of Artificial Sequence: Cyclic peptide) [compound 439] | A (The binding amount is 0.7 molecules of the cyclic peptide/one molecule of FGFR or more.) | A (The residual rate of cyclic peptide is 90% or more.) |
|  | 440 (QXPQNFINPVQWRYFQHYXNKKK; not fully specified; Description of Artificial Sequence: Cyclic peptide) [compound 440] | A (The binding amount is 0.7 molecules of the cyclic peptide/one molecule of FGFR or more.) | A (The residual rate of cyclic peptide is 90% or more.) |
|  | 441 (QXPQNFINPVQWRYFQHYXNKKK; not fully specified; Description of Artificial Sequence: Cyclic peptide) [compound 441] | A (The binding amount is 0.7 molecules of the cyclic peptide/one molecule of FGFR or more.) | A (The residual rate of cyclic peptide is 90% or more.) |
|  | 442 (YXEENYLDPEQYQYFIYFKYKKK; not fully specified; Description of Artificial Sequence: Cyclic peptide) [compound 442] | A (The binding amount is 0.7 molecules of the cyclic peptide/one molecule of FGFR or more.) | A (The residual rate of cyclic peptide is 90% or more.) |
| ≥ 0.7 moleculesofthecyclicpeptide/onemoleculeoffgfr | YXEENYLDPEQYQYFIYFXYKKK (not fully specified; thioether ring (Dap(acetyl))-(Hcy), chemically synthesized) [cyclic peptide SEQ ID NO: 449] |  |  |
| ≥ 0.7 moleculesofthecyclicpeptide/onemoleculeoffgfr | QXPQNFINPVQWRYFQHYXNKKK (not fully specified; thioether ring (Hcy)-(Dab(acetyl)), chemically synthesized) [cyclic peptide SEQ ID NO: 435] |  |  |
| ≥ 0.7 moleculesofthecyclicpeptide/onemoleculeoffgfr | QK(COCH2)PQNFINPVQWRYFQHY[hCys]NKKK (thioether 2-19 via acetyl″, chemically synthesized) [cyclic peptide SEQ ID NO: 437] |  |  |
| ≥ 0.7 moleculesofthecyclicpeptide/onemoleculeoffgfr | YXEENYLDPEQYQYFIYFXYKKK (not fully specified; thioether ring (Orn(acetyl))-(Hcy), chemically synthesized) [cyclic peptide SEQ ID NO: 447] |  |  |
| ≥ 0.7 moleculesofthecyclicpeptide/onemoleculeoffgfr | Y[hCys]EENYLDPEQYQYFIYFK(COCH2)YKKK (thioether 2-19 via acetyl″, chemically synthesized) [cyclic peptide SEQ ID NO: 442] |  |  |
| ≥ 0.7 moleculesofthecyclicpeptide/onemoleculeoffgfr | YXHENYLDPEQYQYFHYFKYKKK (thioether ring (Hcy)-(K(acetyl)), chemically synthesized) [cyclic peptide SEQ ID NO: 452] |  |  |
| ≥ 0.7 moleculesofthecyclicpeptide/onemoleculeoffgfr | QXPQNFINPVQWRYFQHYXNKKK (not fully specified; thioether ring (Dab(acetyl))-(Hcy), chemically synthesized) [cyclic peptide SEQ ID NO: 440] |  |  |
| ≥ 0.7 moleculesofthecyclicpeptide/onemoleculeoffgfr | QXPQNFINPVQWRYFQHYXNKKK (not fully specified; thioether ring (Orn(acetyl))-(Hcy), chemically synthesized) [cyclic peptide SEQ ID NO: 439] |  |  |
| ≥ 0.7 moleculesofthecyclicpeptide/onemoleculeoffgfr | Q[hCys]PQNFINPVQWRYFQHYK(COCH2)NKKK (thioether 2-19 via acetyl″, chemically synthesized) [cyclic peptide SEQ ID NO: 433] |  |  |
| ≥ 0.7 moleculesofthecyclicpeptide/onemoleculeoffgfr | QK(COCH2)PQNFINPVQWRYFQHY[hCys]NKKK (thioether 2-19 via acetyl″, chemically synthesized) [cyclic peptide SEQ ID NO: 438] |  |  |
| 0.5 to 0.7 moleculesofthecyclicpeptide/onemoleculeoffgfr | YXEENYLDPEQYQYFIYFXYKKK (not fully specified; thioether ring (Hcy)-(Dab(acetyl)), chemically synthesized) [cyclic peptide SEQ ID NO: 444] |  |  |
| 0.1 to 0.5 moleculesofthecyclicpeptide/onemoleculeoffgfr | XHENYLDPEQYQYFHYFKYKKK (thioether ring (Hcy)-(K(acetyl)), chemically synthesized) [cyclic peptide SEQ ID NO: 454] |  |  |
| ≥ 0.7 moleculesofthecyclicpeptide/onemoleculeoffgfr | YXEENYLDPEQYQYFIYFXYKKK (not fully specified; thioether ring (Dab(acetyl))-(Hcy), chemically synthesized) [cyclic peptide SEQ ID NO: 448] |  |  |
| ≥ 0.7 moleculesofthecyclicpeptide/onemoleculeoffgfr | QXPQNFINPVQWRYFQHYXNKKK (not fully specified; thioether ring (Dap(acetyl))-(Hcy), chemically synthesized) [cyclic peptide SEQ ID NO: 441] |  |  |
| < 0.1 moleculesofthecyclicpeptide/onemoleculeoffgfr | YCEENYLDPEQYQYFIYFCYKKK (disulfide 2-19 (inferred), chemically synthesized) [cyclic peptide SEQ ID NO: 451] |  |  |
| 0.1 to 0.5 moleculesofthecyclicpeptide/onemoleculeoffgfr | YXHENYLDPEQYQYFHYFKKKK (thioether ring (Hcy)-(K(acetyl)), chemically synthesized) [cyclic peptide SEQ ID NO: 453] |  |  |
| ≥ 0.7 moleculesofthecyclicpeptide/onemoleculeoffgfr | YXEENYLDPEQYQYFIYFXYKKK (not fully specified; thioether ring (Hcy)-(Orn(acetyl)), chemically synthesized) [cyclic peptide SEQ ID NO: 443] |  |  |
| ≥ 0.7 moleculesofthecyclicpeptide/onemoleculeoffgfr | QXPQNFINPVQWRYFQHYXNKKK (not fully specified; thioether ring (Hcy)-(Orn(acetyl)), chemically synthesized) [cyclic peptide SEQ ID NO: 434] |  |  |
| ≥ 0.7 moleculesofthecyclicpeptide/onemoleculeoffgfr | YKEENYLDPEQYQYFIYFXYKKK (thioether ring (K(acetyl))-(Hcy), chemically synthesized) [cyclic peptide SEQ ID NO: 446] |  |  |
